± gives the uncertainty stated by the source.
B1: Homeobox protein SIX3, residues 212 to 262; numbered along this chain, O95343 (parent)
chain: CFKERTRSLLREWYLQDPYPNPSKKRELAQATGLTPTQVGNWFKNRRQRDR

Variants of: B1
Experiment: abundance fitness (aPCA) (normalised: wild type 0, dead -1); higher = more abundant; growth selection in yeast, the domain comes from the species named
Details: Homo sapiens
With CFKERTRSLLREWYLQDPYPNPSKLRELAQATGLTPTQVGNWFKNRRQRDR [K25L] the abundance fitness was -0.061 ± 0.063. In the case of CFKERTRSLLREWYLQDPYPNPSKCRELAQATGLTPTQVGNWFKNRRQRDR [K25C], the abundance fitness is reported as -0.103 ± 0.097. In the case of CFKERTRSLLREWYLQDPYPNPSKARELAQATGLTPTQVGNWFKNRRQRDR [K25A], the abundance fitness is reported as -0.326 ± 0.057. With CFKERTRSLLREWYLQDPYPNPSKRRELAQATGLTPTQVGNWFKNRRQRDR [K25R] the abundance fitness was -0.177 ± 0.063. In the case of CFKERTRSLLREWYLQDPYPNPSKVRELAQATGLTPTQVGNWFKNRRQRDR [K25V], the abundance fitness is reported as -0.019 ± 0.044. In the case of CFKERTRSLLREWYLQDPYPNPSKNRELAQATGLTPTQVGNWFKNRRQRDR [K25N], the abundance fitness is reported as -0.344 ± 0.25. Variant CFKERTRSLLREWYLQDPYPNPSKGRELAQATGLTPTQVGNWFKNRRQRDR [K25G] has an abundance fitness of -0.579 ± 0.1. In the case of CFKERTRSLLREWYLQDPYPNPSKQRELAQATGLTPTQVGNWFKNRRQRDR [K25Q], the abundance fitness is reported as -0.109 ± 0.11. CFKERTRSLLREWYLQDPYPNPSKSRELAQATGLTPTQVGNWFKNRRQRDR [K25S] showed an abundance fitness of -0.478 ± 0.085. Work on CFKERTRSLLREWYLQDPYPNPSKERELAQATGLTPTQVGNWFKNRRQRDR [K25E] yielded an abundance fitness of 0.008 ± 0.079. Variant CFKERTRSLLREWYLQDPYPNPSKPRELAQATGLTPTQVGNWFKNRRQRDR [K25P] has an abundance fitness of -0.84 ± 0.067. For CFKERTRSLLREWYLQDPYPNPSKTRELAQATGLTPTQVGNWFKNRRQRDR [K25T], the abundance fitness was 0.133 ± 0.062. Variant CFKERTRSLLREWYLQDPYPNPSKMRELAQATGLTPTQVGNWFKNRRQRDR [K25M] has an abundance fitness of 0.004 ± 0.09. In the case of CFKERTRSLLREWYLQDPYPNPSKDRELAQATGLTPTQVGNWFKNRRQRDR [K25D], the abundance fitness is reported as -0.753 ± 0.062. Work on CFKERTRSLLREWYLQDPTPNPSKKRELAQATGLTPTQVGNWFKNRRQRDR [Y19T] yielded an abundance fitness of -0.278 ± 0.088. Work on CFKERTRSLLREWYLQDPVPNPSKKRELAQATGLTPTQVGNWFKNRRQRDR [Y19V] yielded an abundance fitness of -0.474 ± 0.048. In the case of CFKERTRSLLREWYLQDPWPNPSKKRELAQATGLTPTQVGNWFKNRRQRDR [Y19W], the abundance fitness is reported as -0.374 ± 0.09. Variant CFKERTRSLLREWYLQDPYPNPSWKRELAQATGLTPTQVGNWFKNRRQRDR [K24W] has an abundance fitness of -0.896 ± 0.13. In the case of CFKERTRSLLREWYLQDPYPNPSSKRELAQATGLTPTQVGNWFKNRRQRDR [K24S], the abundance fitness is reported as -0.193 ± 0.06. CFKERTRSLLREWYLQDPYPNPSFKRELAQATGLTPTQVGNWFKNRRQRDR [K24F] showed an abundance fitness of -0.672 ± 0.094. With CFKERTRSLLREWYLQDPYPNPSEKRELAQATGLTPTQVGNWFKNRRQRDR [K24E] the abundance fitness was -0.364 ± 0.092. Variant CFKERTRSLLREWYLQDPYPNPSTKRELAQATGLTPTQVGNWFKNRRQRDR [K24T] has an abundance fitness of -0.097 ± 0.092. CFKERTRSLLREWYLQDPYPNPSMKRELAQATGLTPTQVGNWFKNRRQRDR [K24M] showed an abundance fitness of -0.246 ± 0.15. CFKERTRSLLREWYLQDPYPNPSVKRELAQATGLTPTQVGNWFKNRRQRDR [K24V] showed an abundance fitness of -0.101 ± 0.053. Variant CFKERTRSLLREWYLQDPYPNPSPKRELAQATGLTPTQVGNWFKNRRQRDR [K24P] has an abundance fitness of -0.924 ± 0.14. Work on CFKERTRSLLREWYLQDPYPNPSIKRELAQATGLTPTQVGNWFKNRRQRDR [K24I] yielded an abundance fitness of -0.072 ± 0.09. With CFKERTRSLLREWYLQDPYPNPSYKRELAQATGLTPTQVGNWFKNRRQRDR [K24Y] the abundance fitness was -0.709 ± 0.2. In the case of CFKERTRSLLREWYLQDPYPNPSHKRELAQATGLTPTQVGNWFKNRRQRDR [K24H], the abundance fitness is reported as -0.219 ± 0.096. CFKERTRSLLREWYLQDPYPNPSGKRELAQATGLTPTQVGNWFKNRRQRDR [K24G] showed an abundance fitness of -0.417 ± 0.068. With CFKERTRSLLREWYLQDPYPNPSQKRELAQATGLTPTQVGNWFKNRRQRDR [K24Q] the abundance fitness was -0.112 ± 0.093. Variant CFKERTRSLLREWYLQDPYPNPSLKRELAQATGLTPTQVGNWFKNRRQRDR [K24L] has an abundance fitness of -0.366 ± 0.084. CFKERTRSLLREWYLQDPYPNPSCKRELAQATGLTPTQVGNWFKNRRQRDR [K24C] gave an abundance fitness of -0.399 ± 0.085. In the case of CFKERTRSLLREWYLQDPYPNPSRKRELAQATGLTPTQVGNWFKNRRQRDR [K24R], the abundance fitness is reported as -0.137 ± 0.047. CFKERTRSLLREWYLQDPYPNPSAKRELAQATGLTPTQVGNWFKNRRQRDR [K24A] showed an abundance fitness of 0.11 ± 0.074. For CFKERTRSLLREWYLQDPYPDPSKKRELAQATGLTPTQVGNWFKNRRQRDR [N21D], the abundance fitness was 0.322 ± 0.086. CFKERTRSLLREWYLQDPYPTPSKKRELAQATGLTPTQVGNWFKNRRQRDR [N21T] showed an abundance fitness of 0.224 ± 0.068. In the case of CFKERTRSLLREWYLQDPYPAPSKKRELAQATGLTPTQVGNWFKNRRQRDR [N21A], the abundance fitness is reported as -0.159 ± 0.052. CFKERTRSLLREWYLQDPYPKPSKKRELAQATGLTPTQVGNWFKNRRQRDR [N21K] gave an abundance fitness of 0.23 ± 0.091. CFKERTRSLLREWYLQDPYPVPSKKRELAQATGLTPTQVGNWFKNRRQRDR [N21V] gave an abundance fitness of -0.14 ± 0.047. In the case of CFKERTRSLLREWYLQDPYPRPSKKRELAQATGLTPTQVGNWFKNRRQRDR [N21R], the abundance fitness is reported as -0.351 ± 0.057. CFKERTRSLLREWYLQDPYPLPSKKRELAQATGLTPTQVGNWFKNRRQRDR [N21L] showed an abundance fitness of -0.375 ± 0.049. In the case of CFKERTRSLLREWYLQDPYPPPSKKRELAQATGLTPTQVGNWFKNRRQRDR [N21P], the abundance fitness is reported as 0.027 ± 0.063. Work on CFKERTRSLLREWYLQDPYPQPSKKRELAQATGLTPTQVGNWFKNRRQRDR [N21Q] yielded an abundance fitness of -0.553 ± 0.34. Variant CFKERTRSLLREWYLQDPYPFPSKKRELAQATGLTPTQVGNWFKNRRQRDR [N21F] has an abundance fitness of -0.499 ± 0.21. Variant CFKERTRSLLREWYLQDPYPGPSKKRELAQATGLTPTQVGNWFKNRRQRDR [N21G] has an abundance fitness of -0.042 ± 0.057. CFKERTRSLLREWYLQDPYPYPSKKRELAQATGLTPTQVGNWFKNRRQRDR [N21Y] showed an abundance fitness of -0.873 ± 0.1. For CFKERTRSLLREWYLQDPYPMPSKKRELAQATGLTPTQVGNWFKNRRQRDR [N21M], the abundance fitness was -0.277 ± 0.067. In the case of CFKERTRSLLREWYLQDPYPSPSKKRELAQATGLTPTQVGNWFKNRRQRDR [N21S], the abundance fitness is reported as 0.078 ± 0.056. Work on CFKERTRSLLREWYLQDPYPWPSKKRELAQATGLTPTQVGNWFKNRRQRDR [N21W] yielded an abundance fitness of -0.613 ± 0.077. With CFKERTRSLLREWYLQDPYPIPSKKRELAQATGLTPTQVGNWFKNRRQRDR [N21I] the abundance fitness was -0.433 ± 0.17. For CFKERTRSLLREWYLQDPYPHPSKKRELAQATGLTPTQVGNWFKNRRQRDR [N21H], the abundance fitness was -0.171 ± 0.097.

Reference: the Human Domainome abundance scans (Beltran et al. 2025)
